Source: patent US20220041726A1 (Dana-Farber, published 2022)

Target: T1, mouse PD-1 (mouse, UniProt Q02242 25-288)
T1 construct: also called 300-mouse PD-1 transfectants; 300-PD-1 transfectants
T1 sequence: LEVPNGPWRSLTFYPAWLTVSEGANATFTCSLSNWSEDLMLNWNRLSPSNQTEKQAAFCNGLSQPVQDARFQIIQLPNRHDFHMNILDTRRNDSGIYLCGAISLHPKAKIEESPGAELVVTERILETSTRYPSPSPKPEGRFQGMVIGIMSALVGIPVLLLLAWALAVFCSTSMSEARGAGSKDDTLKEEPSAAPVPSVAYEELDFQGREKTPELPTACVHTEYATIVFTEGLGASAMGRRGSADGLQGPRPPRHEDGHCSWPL
Experiment: hybridoma screened by flow cytometry on PD-1 transfectants; described in words only
Description: The mice were immunized first with human PD-1-mIgG2a fusion protein (made in Freeman lab) in complete Freund's adjuvant and thereafter with alternating doses of human PD-1-mIgG2a fusion protein and mouse PD-1-Ig fusion protein in incomplete Freund's adjuvant. Mice were given a final boost with antigen and fused with SP2/0 myeloma cells. The PD-1 specific hybridomas were first identified when this fusion was screened by flow cytometry on 300-human PD-1 and 300-mouse PD-1 transfectants. Hybridomas were subcloned to stability. The mAbs were characterized for their capacity to bind to human and/or mouse PD-1 and for their affinity.

binding result: binds
B1: 8H3 mouse anti-mouse PD-1 mAb (antibody, mouse IgG1, V domains shown)
VH: QVQLQQSGAELARPGASVKMSCKASGYTFTSYTMHWVKQRPGQGLEWIGYIHPSTGYIYYNQKFKDKATLTADKSSSTAYMQLSSLTSEDSAVYYCARKGTYLFDYWGQGTTLTVSS
VL: DIVMTQSQKFMSTSVGDRVSVTCKASQNVGTNVAWYQQKPGQSPKALIYSASYRYSGVPDRFTGSGSGTDFTLTISNMQSEDLAEYFCQQYNNYPLTFGAGTMLELK
notes: the light chain is kappa; also called 332.8H3; αPD-1 mAb (8H3)
